Data from patent US9163063B2, “Peptides and nanoparticles for therapeutic and diagnostic applications” (Trustees of Dartmouth College, priority 2009, dated 2015).
Ends that are not written are not given here. * marks the point of attachment. Biotin = O=C1N[C@H]2[C@H](CS[C@H]2CCCCC(=O)*)N1

Assays:
[1] = test system: EGFR; test: EGFR expression after integrin-tail peptide in AsPC1 cells; assay type: cell-based, human; settings: AsPC1 pancreatic adenocarcinoma cells
Description: In addition, with its PDZ domain, GIPC is associated with a vast list of transmembrane receptors, including integrin α6 and α 5 that are expressed in several pancreatic cancer cell lines. […] EGFR is a receptor tyrosine kinase highly expressed in pancreatic cancer cells and is a prognostic factor for overall survival. […] A peptide designed to disrupt the interaction between the PDZ domain and the cytoplasmic tail of integrin α 5 and α 6 (KERLTSDA, SEQ ID NO. 8) was utilized.

[2] = biological target: T1, PDZ domain of GIPC/synectin (Homo sapiens, UniProt O14908); test: Phage ELISA / phage binding assay with N-terminal biotinylated peptides; settings: GIPC-PDZ T7 phage
T1 construct: dsDNA encoding the PDZ domain of GIPC/synectin was double-digested with EcoRI and HindIII; made in house; host or cells: T7 phage grown in E. coli BLT5403
T1 sequence (O14908 133-213 limits assumed): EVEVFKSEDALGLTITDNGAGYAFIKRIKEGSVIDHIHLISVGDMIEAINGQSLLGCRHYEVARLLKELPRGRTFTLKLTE
Experimental: dsDNA encoding the PDZ domain of GIPC/synectin was double-digested with EcoRI and HindIII, and the DNA (0.8 μL of a 45 nM (7.7 ng/μL) solution) was used in the ligation reaction with the T7 Select 10-3 vector arms (Novagen, 0.5 μL), along with 10× ligase buffer (0.25 μL); ATP (10 mM, 0.25 μL, final concentration 1 mM); DTT (100 mM, 0.25 μL); and T4 DNA ligase (0.5 μL, 1 unit/μL). The sample was incubated at 16° C. for 16 h. The T7 phage packaging reaction was performed by adding packaging extract (Novagen, 12.5 μL, or half the manufacturer's recommended amount) to the ligation reaction sample (2.5 μL) and allowing it to incubate for 2 h at room temperature. The reaction was stopped by the addition of a sterile LB medium (135 μL). A plaque assay was performed to determine the number of recombinant phage generated. E. coli BTL5403 was grown at 37° C. with shaking in LB/Amp50 medium (10 mL) until OD˜1.0 was reached. Top agarose (10 mL) was melted and equilibrated to this temperature. A series of dilutions was prepared prior to plating the phage. The first dilution was generated by adding packaged phage (10 μL) to LB/Amp50 (990 μL) for a total of 100-fold dilution (10^2). […] Plaques generated were counted to determine the titer and the number of recombinants generated. […]

Substance | EGFR expression [1] | binding to the PDZ domain of GIPC/synectin [2]
KERLTSDA [K-E-R-L-T-S-D-A] | down regulation of EGFR | 
KKETAV |  | not recognized
KKETEV (Biotin-KKETEV) |  | not recognized
